# In paper PMC9352680, “A comprehensive thermodynamic model for RNA binding by the Saccharomyces cerevisiae Pumilio protein PUF4”:
# Residue numbers refer to the chain shown, from its start. Names may count otherwise.
# T1: PUF4 RNA-binding domain (Saccharomyces cerevisiae, UniProt P25339 537-888)
# T1 sequence: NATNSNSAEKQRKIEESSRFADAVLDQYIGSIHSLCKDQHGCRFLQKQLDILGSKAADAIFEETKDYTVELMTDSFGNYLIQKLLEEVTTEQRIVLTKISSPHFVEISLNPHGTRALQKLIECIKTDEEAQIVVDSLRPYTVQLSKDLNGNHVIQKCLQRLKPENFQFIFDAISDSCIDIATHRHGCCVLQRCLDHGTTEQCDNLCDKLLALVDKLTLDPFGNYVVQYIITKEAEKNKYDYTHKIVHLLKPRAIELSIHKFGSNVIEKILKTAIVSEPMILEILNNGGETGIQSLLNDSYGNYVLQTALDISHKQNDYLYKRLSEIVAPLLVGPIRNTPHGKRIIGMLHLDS
# B1: Id_ii_S4_P5E.4_K5.3_C5.2_[C-2G]_[T-1C]_H5.3_A5.1_F5.1_T5.2_[T11A]_[A12T] (ssRNA)
# RNA: UUUGACAACUGAUCGUUCUUUCUGCACACUUAUUAAUUUCUUUCUCGAUCAGUUGUCUUU
# B2: Id_ii_S4_P5E.4_K5.3_C5.2_[C-2T]_[T-1A]_H5.3_A5.1_F5.1_T5.2 (ssRNA)
# RNA: B1 RNA with G24U, C25A, A36U, U37A
# B3: Id_ii_S4_P5E.4_K5.3_C5.2_[C-2A]_[T-1A]_H5.3_A5.1_F5.1_T5.2 (ssRNA)
# RNA: B1 RNA with G24A, C25A, A36U, U37A
# B4: Id_ii_S4_P5E.4_K5.3_C5.2_[C-2T]_[T-1A]_H5.3_A5.1_F5.1_T5.2_[A12C] (ssRNA)
# RNA: B1 RNA with G24U, C25A, A36U, U37C
# B5: Id_ii_S4_P5E.4_K5.3_C5.2_[C-2T]_[T-1C]_H5.3_A5.1_F5.1_T5.2_[A12T] (ssRNA)
# RNA: B1 RNA with G24U, A36U
# B6: Id_ii_S4_P5E.3_K5.2_C5.2_H5.2_A5.1_F5.1_T5.2_[T11C]_[A12G] (ssRNA)
# RNA: UUUGACAACUGAUCGUUCUUUCUCUUAUAUUAUUACGUUCUUUCUCGAUCAGUUGUCUUU
# B7: Id_ii_S4_P5E.4_K5.3_C5.2_[C-2T]_H5.3_A5.1_F5.1_T5.2_[T11A]_[A12T] (ssRNA)
# RNA: B1 RNA with G24U, C25U
# B8: Id_ii_S4_P5E.4_K5.3_C5.2_[C-2A]_[T-1C]_H5.3_A5.1_F5.1_T5.2_[A12G] (ssRNA)
# RNA: B1 RNA with G24A, A36U, U37G
# B9: Id_ii_S4_P5E.4_K5.3_C5.2_[C-2T]_H5.3_A5.1_F5.1_T5.2_[A12T] (ssRNA)
# RNA: B1 RNA with G24U, C25U, A36U
# B10: Id_ii_S4_P5E.3_K5.2_C5.2_H5.2_A5.1_F5.1_T5.2_[A12T] (ssRNA)
# RNA: B6 RNA with C36U, G37U
# B11: Id_ii_S4_P5E.4_K5.3_C5.2_[T-1G]_H5.3_A5.1_F5.1_T5.2 (ssRNA)
# RNA: B1 RNA with G24C, C25G, A36U, U37A
# B12: Id_ii_S4_P5E.4_K5.3_C5.2_H5.3_A5.1_F5.1_T5.2_[T11G]_[A12C] (ssRNA)
# RNA: B1 RNA with G24C, C25U, A36G, U37C
# B13: Id_ii_S4_P5E.3_K5.2_C5.2_H5.2_A5.1_F5.1_T5.2_[T11C]_[A12T] (ssRNA)
# RNA: B6 RNA with G37U
# B14: Id_ii_S4_P5E.4_K5.3_C5.2_[T-1C]_H5.3_A5.1_F5.1_T5.2_[T11C]_[A12T] (ssRNA)
# RNA: B1 RNA with G24C, A36C
# B15: Id_ii_S4_P5E.4_K5.3_C5.2_[C-2G]_H5.3_A5.1_F5.1_T5.2_[A12T] (ssRNA)
# RNA: B1 RNA with C25U, A36U
# B16: Id_ii_S4_P5E.4_K5.3_C5.2_[C-2G]_H5.3_A5.1_F5.1_T5.2_[A12C] (ssRNA)
# RNA: B1 RNA with C25U, A36U, U37C
# B17: Id_ii_S4_P5E.4_K5.3_C5.2_[T-1C]_H5.3_A5.1_F5.1_T5.2_[A12G] (ssRNA)
# RNA: B1 RNA with G24C, A36U, U37G
# B18: Id_ii_S4_P5E.4_K5.3_C5.2_[C-2A]_H5.3_A5.1_F5.1_T5.2_[A12T] (ssRNA)
# RNA: B1 RNA with G24A, C25U, A36U
# B19: Id_ii_S4_P5E.4_K5.3_C5.2_[C-2G]_H5.3_A5.1_F5.1_T5.2_[T11A]_[A12T] (ssRNA)
# RNA: B1 RNA with C25U
# B20: Id_ii_S4_P5E.4_K5.3_C5.2_[C-2A]_H5.3_A5.1_F5.1_T5.2_[A12G] (ssRNA)
# RNA: B1 RNA with G24A, C25U, A36U, U37G
# B21: Id_ii_S4_P5E.4_K5.3_C5.2_H5.3_A5.1_F5.1_T5.2_[A12T] (ssRNA)
# RNA: B1 RNA with G24C, C25U, A36U
# Target: T1, PUF4 RNA-binding domain
# Assay: Mg; RNA-MaP; 20 mM Na-HEPES pH 7.4, 30 mM KOAc, 0.75 mM MgCl2, 0.1% Tween-20, 5% glycerol, 0.1 mg/mL BSA, 2 mM DTT; 25 C; 0.0125-409.6 nM protein
# Conditions: tags: N-His6-TEV cleaved; C-SNAP kept, Cy3B-labelled; label: tethered on chip by stalled RNA polymerase
row,Binder,Kd [nM]
1,UCUCUUUUUUGUAAAUAUAUCUCUU (ssRNA) [Id_iii_S1_P3E.8_K3.4_C3.3_[C-2T]_H3.1_A3.2_F3.1_T3.2],17.6
2,B1,559
3,B2,893
4,B3,845
5,B4,> 2300
6,B5,> 2300
7,UCUCUUUCAUGUAUAUAUAUCUCUU (ssRNA) [Id_iii_S1_P3E.5_K3.1_C3.3_[T-1A]_H3.1_A3.1_F3.1_T3.2],6.5
8,UCUCUUUCGUGUAAAUAUAUCUCUU (ssRNA) [Id_iii_S1_P3E.8_K3.4_C3.3_[T-1G]_H3.1_A3.2_F3.1_T3.2],18.6
9,B6,470
10,B7,> 2300
11,B8,> 2300
12,B9,> 2300
13,B10,168
14,B11,1170
15,B12,> 2300
16,B13,96.6
17,B14,> 2300
18,B15,2.65
19,B16,3
20,B17,> 2300
21,B18,467

row,Binder,Kd [nM]
1,B19,2.81
2,B20,1530
3,B21,> 2300
4,UCUCUUCCUUGUAAAUAUAUCUCUU (ssRNA) [Id_iii_S1_P3E.8_K3.4_C3.3_[T-3C]_H3.1_A3.2_F3.1_T3.2],16.5
5,UCUCUUUCUUGUAUAUAUUUCUCUU (ssRNA) [Id_iii_S1_P3E.5_K3.1_C3.3_H3.1_A3.1_F3.1_T3.2_[A10T]],6.04
6,UCUCUUACUUAUAUAUAUAUCUCUU (ssRNA) [Id_iii_S1_P3E.6_K3.2_C3.3_[T-3A]_H3.2_A3.1_F3.1_T3.2],113
7,UCUCUUUUUUAUAUAUAUAUCUCUU (ssRNA) [Id_iii_S1_P3E.6_K3.2_C3.3_[C-2T]_H3.2_A3.1_F3.1_T3.2],486
8,UCUCUUUAUUGUAAAUAUAUCUCUU (ssRNA) [Id_iii_S1_P3E.8_K3.4_C3.3_[C-2A]_H3.1_A3.2_F3.1_T3.2],18.2
9,UCUCUUUCUUAUAUAUAUGUCUCUU (ssRNA) [Id_iii_S1_P3E.6_K3.2_C3.3_H3.2_A3.1_F3.1_T3.2_[A10G]],755
10,UCUCUUUCGUGUAUAUAUAUCUCUU (ssRNA) [Id_iii_S1_P3E.5_K3.1_C3.3_[T-1G]_H3.1_A3.1_F3.1_T3.2],6.72
11,UCUCUUUGUCCUAUUAUCUCUU (ssRNA) [Ib_S1_P5E.1_K5.1_C5.1_H5.1_[A4C]_A5.1_[T5C]_F5.1_T5.1],79.5
12,UCUCUUUGUGUCAUUAUCUCUU (ssRNA) [Ib_S1_P5E.1_K5.1_C5.1_H5.1_[A4G]_A5.1_[T6C]_F5.1_T5.1],30.7
13,UCUCUUUCAUAUAUAUAUAUCUCUU (ssRNA) [Id_iii_S1_P3E.6_K3.2_C3.3_[T-1A]_H3.2_A3.1_F3.1_T3.2],592
14,UCUCUUUUUUGUAUAUAUAUCUCUU (ssRNA) [Id_iii_S1_P3E.5_K3.1_C3.3_[C-2T]_H3.1_A3.1_F3.1_T3.2],6.24
15,UCUCUUUCUACACUAUACAUCUCUU (ssRNA) [Id_iii_S1_P3E.7_K3.3_C3.3_H3.3_A3.1_F3.1_T3.2_[T9C]],2260
16,UCUCUUGCUUAUAUAUAUAUCUCUU (ssRNA) [Id_iii_S1_P3E.6_K3.2_C3.3_[T-3G]_H3.2_A3.1_F3.1_T3.2],380
17,UCUCUUCCUUGUAUAUAUAUCUCUU (ssRNA) [Ie_S1_P3E.2_K3.1_C3.2_[+-2C]_H3.1_A3.1_F3.1_T3.2],6.23
18,UCUCUUUCAACACUAUAUAUCUCUU (ssRNA) [Id_iii_S1_P3E.7_K3.3_C3.3_[T-1A]_H3.3_A3.1_F3.1_T3.2],1700
19,UCUCUUUAUACACUAUAUAUCUCUU (ssRNA) [Id_iii_S1_P3E.7_K3.3_C3.3_[C-2A]_H3.3_A3.1_F3.1_T3.2],31.6
20,UCUCUUUCUACACUAUAUUUCUCUU (ssRNA) [Id_iii_S1_P3E.7_K3.3_C3.3_H3.3_A3.1_F3.1_T3.2_[A10T]],2010
21,UCUCUUUCUUAUAUAUACAUCUCUU (ssRNA) [Id_iii_S1_P3E.6_K3.2_C3.3_H3.2_A3.1_F3.1_T3.2_[T9C]],972

row,Binder,Kd [nM]
1,UCUCUUCCUUAUAUAUAUAUCUCUU (ssRNA) [Id_iii_S1_P3E.6_K3.2_C3.3_[T-3C]_H3.2_A3.1_F3.1_T3.2],364
2,UCUCUUUCUUGUAUAUAUCUCUCUU (ssRNA) [Id_iii_S1_P3E.5_K3.1_C3.3_H3.1_A3.1_F3.1_T3.2_[A10C]],6.06
3,UCUCUUUGUCUCAUUAUCUCUU (ssRNA) [Ib_S1_P5E.1_K5.1_C5.1_H5.1_[A4C]_A5.1_[T6C]_F5.1_T5.1],35.9
4,UCUCUUUGUGUAAUUAUCUCUU (ssRNA) [Ib_S1_P5E.1_K5.1_C5.1_H5.1_[A4G]_A5.1_[T6A]_F5.1_T5.1],27.5
5,UCUCUUUGUACACUAUAUAUCUCUU (ssRNA) [Id_iii_S1_P3E.7_K3.3_C3.3_[C-2G]_H3.3_A3.1_F3.1_T3.2],1.32
6,UCUCUUUCUUGUAUAUAUGUCUCUU (ssRNA) [Id_iii_S1_P3E.5_K3.1_C3.3_H3.1_A3.1_F3.1_T3.2_[A10G]],7.51
7,UCUCUUUGUUGUAUAUAUAUCUCUU (ssRNA) [Id_iii_S1_P3E.5_K3.1_C3.3_[C-2G]_H3.1_A3.1_F3.1_T3.2],5.21
8,UCUCUUUCCUGUAUAUAUAUCUCUU (ssRNA) [Id_iii_S1_P3E.5_K3.1_C3.3_[T-1C]_H3.1_A3.1_F3.1_T3.2],4.14
9,UCUCUUACUUGUAAAUAUAUCUCUU (ssRNA) [Id_iii_S1_P3E.8_K3.4_C3.3_[T-3A]_H3.1_A3.2_F3.1_T3.2],25.7
10,UCUCUUUAUUGUAUAUAUAUCUCUU (ssRNA) [Id_iii_S1_P3E.5_K3.1_C3.3_[C-2A]_H3.1_A3.1_F3.1_T3.2],9.45
11,UCUCUUUUUACACUAUAUAUCUCUU (ssRNA) [Id_iii_S1_P3E.7_K3.3_C3.3_[C-2T]_H3.3_A3.1_F3.1_T3.2],2050
12,UCUCUUUGUUGUAUUAUCUCUU (ssRNA) [Ib_S1_P5E.1_K5.1_C5.1_H5.1_[A4T]_A5.1_[T5G]_F5.1_T5.1],22.2
13,UCUCUUUAUUAUAUAUAUAUCUCUU (ssRNA) [Id_iii_S1_P3E.6_K3.2_C3.3_[C-2A]_H3.2_A3.1_F3.1_T3.2],373
14,UCUCUUUGUAUUGUUAUCUCUU (ssRNA) [Ia_S1_P5E.1_K5.1_C5.1_H5.1_A5.1_[A7G]_F5.1_T5.1],11.2
15,UCUCUUUCGUAUAUAUAUAUCUCUU (ssRNA) [Id_iii_S1_P3E.6_K3.2_C3.3_[T-1G]_H3.2_A3.1_F3.1_T3.2],502
16,UCUCUUGCUUGUAAAUAUAUCUCUU (ssRNA) [Id_iii_S1_P3E.8_K3.4_C3.3_[T-3G]_H3.1_A3.2_F3.1_T3.2],20.2
17,UCUCUUACUACACUAUAUAUCUCUU (ssRNA) [Id_iii_S1_P3E.7_K3.3_C3.3_[T-3A]_H3.3_A3.1_F3.1_T3.2],900
18,UCUCUUACUUGUAUAUAUAUCUCUU (ssRNA) [Id_iii_S1_P3E.5_K3.1_C3.3_[T-3A]_H3.1_A3.1_F3.1_T3.2],5.04
19,UCUCUUUGUUCUAUUAUCUCUU (ssRNA) [Ib_S1_P5E.1_K5.1_C5.1_H5.1_[A4T]_A5.1_[T5C]_F5.1_T5.1],31.7
